This experiment addresses T1, IL-18:IL-18Rα complex (human, UniProt Q14116 37-193; Q13478 19-329, limits assumed).
T1 construct: Made by mixing 1.6 uM IL-18 with 100 nM IL-18Ra-Fc-His; also called complexed IL-18: IL-18Rα; not shown: Fc and His tag of the bought fusion protein, not described
T1 sequence (looked up) 1: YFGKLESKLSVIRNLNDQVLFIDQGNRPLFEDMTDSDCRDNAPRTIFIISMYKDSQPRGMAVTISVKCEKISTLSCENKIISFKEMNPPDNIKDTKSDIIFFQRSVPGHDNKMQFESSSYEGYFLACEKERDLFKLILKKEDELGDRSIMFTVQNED
T1 sequence (looked up) 2: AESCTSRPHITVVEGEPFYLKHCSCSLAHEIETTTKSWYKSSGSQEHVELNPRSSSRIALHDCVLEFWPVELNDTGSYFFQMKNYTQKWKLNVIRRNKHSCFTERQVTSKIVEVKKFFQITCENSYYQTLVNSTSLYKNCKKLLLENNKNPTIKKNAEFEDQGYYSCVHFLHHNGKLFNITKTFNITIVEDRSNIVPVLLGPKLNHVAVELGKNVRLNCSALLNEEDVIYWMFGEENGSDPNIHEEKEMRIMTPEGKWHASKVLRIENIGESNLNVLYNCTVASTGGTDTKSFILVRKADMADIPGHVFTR
As to the kind of experiment: Octet RED384 BLI, complex on sensor-captured biotin-hIL-18Rβ-Avi-His after the 50 nM antibody step.

B1: huIL-18Rβ-HisAvi (receptor)
chain: FNISGCSTKKLLWTYSTRSEEEFVLFCDLPEPQKSHFCHRNRLSPKQVPEHLPFMGSNDLSDVQWYQQPSNGDPLEDIRKSYPHIIQDKCTLHFLTPGVNNSGSYICRPKMIKSPYDVACCVKMILEVKPQTNASCEYSASHKQDLLLGSTGSISCPSLSCQSDAQSPAVTWYKNGKLLSVERSNRIVVDEVYDYHQGTYVCDYTQSDTVSSWTVRAVVQVRTIVGDTKLKPDILDPVEDTLEVELGKPLTISCKARFGFERVFNPVIKWYIKDSDLEWEVSVPEAKSIKSTLKDEIIERNIILEKVTQRDLRRKFVCFVQNSIGNTTQSVQLKEKR
modifications: biotinylated in the Octet blocking assay
notes: Soluble analyte in all SPR runs; captured on streptavidin sensors in the Octet assay; also called human IL-18Rβ; human IL-18Rβ-Avi-His
Consider B1, for which the binding result is “binds”.

These data come from patent publication US20250230251A1 (Bristol-Myers Squibb, published 2025).
